According to publication PMC10855866, “Structural Analysis of Breast-Milk αS1-Casein: An α-Helical Conformation Is Required for TLR4-Stimulation” (International Journal of Molecular Sciences, 2024):

How the values were obtained:
αS1-casein (Bos taurus) = αS1-casein (Bos taurus) (UniProt P02662); experiment: SPR; details: cited from earlier work
[1] = target: T1, Toll-like receptor 4 (TLR4) (UniProt O00206 24-839); experiment: flow cytometry on cells; TLR4+ cells (HEK293 transfected with TLR4/MD2/CD14) and TLR4- cells incubated 24 h with 500 nM αS1-casein or a truncated variant; detected with murine anti-His6 IgG and Dylight633 anti-murine IgG; details: one partner purified
T1 construct: Toll-like receptor 4 on the surface of transfected HEK293 cells; The TLR4+ cells also express MD2 and CD14; also called TLR4^+ cells; source: HEK293 cells transfected with TLR4/MD2/CD14 (InvivoGen), on cells
T1 sequence (O00206 24-839): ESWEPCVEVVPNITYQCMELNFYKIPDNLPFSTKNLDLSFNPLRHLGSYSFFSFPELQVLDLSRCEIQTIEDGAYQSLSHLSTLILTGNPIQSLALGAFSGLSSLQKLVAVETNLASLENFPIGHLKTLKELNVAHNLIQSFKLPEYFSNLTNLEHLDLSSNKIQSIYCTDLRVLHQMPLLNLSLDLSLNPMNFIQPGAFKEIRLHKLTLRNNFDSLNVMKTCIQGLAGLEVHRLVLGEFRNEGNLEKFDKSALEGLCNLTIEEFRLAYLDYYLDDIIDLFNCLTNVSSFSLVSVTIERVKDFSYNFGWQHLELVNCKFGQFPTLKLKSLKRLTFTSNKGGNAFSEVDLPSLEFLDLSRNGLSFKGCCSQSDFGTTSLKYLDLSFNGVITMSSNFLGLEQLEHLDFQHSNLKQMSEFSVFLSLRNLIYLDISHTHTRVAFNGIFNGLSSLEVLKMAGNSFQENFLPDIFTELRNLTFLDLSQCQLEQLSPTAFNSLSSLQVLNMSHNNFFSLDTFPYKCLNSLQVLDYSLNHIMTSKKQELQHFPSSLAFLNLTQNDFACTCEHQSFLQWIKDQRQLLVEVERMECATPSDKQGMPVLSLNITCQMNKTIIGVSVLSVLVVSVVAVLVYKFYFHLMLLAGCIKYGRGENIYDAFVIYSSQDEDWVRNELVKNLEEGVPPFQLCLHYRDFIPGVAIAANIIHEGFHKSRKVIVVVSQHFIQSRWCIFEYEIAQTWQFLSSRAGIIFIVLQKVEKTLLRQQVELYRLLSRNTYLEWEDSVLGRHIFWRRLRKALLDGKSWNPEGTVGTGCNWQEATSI

[2] = target: T1, Toll-like receptor 4 (TLR4); experiment: cell-based or functional assay
[3] = target: the molecule itself; experiment: SPR; αS1-casein or P-αS1-casein immobilised on a CMDP-5 chip (450 µRIU); the same protein injected at 0.625 to 5 µM in 10 mM HEPES, 150 mM NaCl, pH 7.2 (5 min, 5 µL/min); KD could be due to a mixture of dimer, tetramer and higher oligomer
[4] = target: the molecule itself; experiment: MST; FITC-αS1-casein (25 nM) mixed with unlabelled αS1-casein in serial dilution; sonicated 15 min, incubated 1 h at 37 °C; 20 mM HEPES pH 7.2, 0.5% BSA, 0.0025% Tween-20; oligomer step not resolved
[5] = target: Toll-like receptor 4 (TLR4) (UniProt O00206)
Sequence of Toll-like receptor 4 (TLR4) (UniProt O00206) (O00206 24-839): as above

Sequence of αS1-casein (Bos taurus) (P02662 16-214): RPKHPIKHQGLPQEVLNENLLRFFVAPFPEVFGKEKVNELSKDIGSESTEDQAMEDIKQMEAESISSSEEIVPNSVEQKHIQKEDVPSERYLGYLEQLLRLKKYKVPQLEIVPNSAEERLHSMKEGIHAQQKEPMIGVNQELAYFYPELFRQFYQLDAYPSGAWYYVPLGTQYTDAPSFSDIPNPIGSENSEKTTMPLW

## αS1-casein (from UniProt P02662)
αS1-casein (Bos taurus)
  Kd: 2000 nM

B1: αS1-casein truncated variant C1 (domain or fragment, human, UniProt P47710 16-163, looked up)
chain: RPKLPLRYPERLQNPSESSEPIPLESREEYMNGMNRQRNILREKQTDEIKDTRNESTQNCVVAEPEKMESSISSSSEEMSLSKCAEQFCRLNEYNQLQLQAAHAQEQIRRMNENSHVQVPFQQLNQLAAYPYAVWYYPQIMQYVPFPP
notes: human αS1-casein, residues 16-163; Amplified from pET TS001, which codes for an N-terminal His6 tag; also called pET C1; source: E. coli, purified (NTA column chromatography); not shown: His6, C-terminal, kept
[1]
  fluorescence intensity on TLR4+ cells over TLR4- cells (fold): 2.3 fold
[2]
  IL-8 secretion of TLR4+ cells after 24 h with 15 nM protein (sandwich ELISA): 5.2 ng/mL

B2: recombinant human αS1-casein (natural protein, UniProt P47710 16-185, looked up)
chain: RPKLPLRYPERLQNPSESSEPIPLESREEYMNGMNRQRNILREKQTDEIKDTRNESTQNCVVAEPEKMESSISSSSEEMSLSKCAEQFCRLNEYNQLQLQAAHAQEQIRRMNENSHVQVPFQQLNQLAAYPYAVWYYPQIMQYVPFPPFSDISNPTAHENYEKNNVMLQW
notes: human αS1-casein (CSN1S1), from plasmid pET TS001; C1 and C2, made from the same plasmid, begin at residue 16 and N1-N4 end at 185, so it probably lacks the signal peptide (1-15); Not phosphorylated (made in E. coli); also called full-length αS1-casein; full-size αS1-casein; source: E. coli, purified (NTA column chromatography); not shown: His6, N-terminal, kept
[3]
  Kd: 2000 nM
  stoichiometry N: 4
[4]
  Kd: 2200 nM
[2]
  IL-8 secretion of TLR4+ cells after 24 h with 15 nM protein (sandwich ELISA): 23.3 ng/mL

B3: in vitro phosphorylated αS1-casein (P-αS1-casein) (natural protein, human, UniProt P47710 16-185, looked up)
chain: RPKLPLRYPERLQNPSESSEPIPLESREEYMNGMNRQRNILREKQTDEIKDTRNESTQNCVVAEPEKMESSISSSSEEMSLSKCAEQFCRLNEYNQLQLQAAHAQEQIRRMNENSHVQVPFQQLNQLAAYPYAVWYYPQIMQYVPFPPFSDISNPTAHENYEKNNVMLQW
modifications: phosphorylated in vitro; the sites of this preparation are not stated
notes: human αS1-casein (CSN1S1), the recombinant protein of m1 after in vitro phosphorylation; source: phosphorylated in vitro
[3]
  Kd: 500 nM

B4: αS1-casein truncated variant N4 (domain or fragment, human, UniProt P47710 93-185, looked up)
chain: EMSLSKCAEQFCRLNEYNQLQLQAAHAQEQIRRMNENSHVQVPFQQLNQLAAYPYAVWYYPQIMQYVPFPPFSDISNPTAHENYEKNNVMLQW
[2]
  IL-8 secretion of TLR4+ cells after 24 h with 15 nM protein (sandwich ELISA): -2.5 ng/mL

B5: synthetic peptide V77-E92 of αS1-casein (peptide)
peptide: VAEPEKMESSISSSSE
[5]
  IL-8 secretion of TLR4+ cells after 24 h with 1.5 µM peptide (sandwich ELISA): 0.95 ng/mL

B6: αS1-casein truncated variant N2 (domain or fragment, human, UniProt P47710 57-185, looked up)
chain: REKQTDEIKDTRNESTQNCVVAEPEKMESSISSSSEEMSLSKCAEQFCRLNEYNQLQLQAAHAQEQIRRMNENSHVQVPFQQLNQLAAYPYAVWYYPQIMQYVPFPPFSDISNPTAHENYEKNNVMLQW
[2]
  IL-8 secretion of TLR4+ cells after 24 h with 15 nM protein (sandwich ELISA): 4.8 ng/mL

B7: αS1-casein truncated variant C2 (domain or fragment, human, UniProt P47710 16-145, looked up)
chain: RPKLPLRYPERLQNPSESSEPIPLESREEYMNGMNRQRNILREKQTDEIKDTRNESTQNCVVAEPEKMESSISSSSEEMSLSKCAEQFCRLNEYNQLQLQAAHAQEQIRRMNENSHVQVPFQQLNQLAAY
notes: human αS1-casein, residues 16-145; Amplified from pET TS001, which codes for an N-terminal His6 tag; also called pET C2; source: E. coli, purified (NTA column chromatography); not shown: His6, C-terminal, kept
[1]
  fluorescence intensity on TLR4+ cells over TLR4- cells (fold): 2.2 fold
[2]
  IL-8 secretion of TLR4+ cells after 24 h with 15 nM protein (sandwich ELISA): 5.2 ng/mL

B8: αS1-casein truncated variant N1 (domain or fragment, human, UniProt P47710 35-185, looked up)
chain: EPIPLESREEYMNGMNRQRNILREKQTDEIKDTRNESTQNCVVAEPEKMESSISSSSEEMSLSKCAEQFCRLNEYNQLQLQAAHAQEQIRRMNENSHVQVPFQQLNQLAAYPYAVWYYPQIMQYVPFPPFSDISNPTAHENYEKNNVMLQW
[2]
  IL-8 secretion of TLR4+ cells after 24 h with 15 nM protein (sandwich ELISA): 7.5 ng/mL
